Read-outs that look alike come from different tables or passages of the source.
How the values were obtained:
[1] = target: HIV-1 Env of the BG505 strain (on pseudovirus) (HIV-1)
[2] = target: panel of 208 geographically and genetically diverse HIV-1 Env pseudoviruses
[3] = target: panel of 208 geographically and genetically diverse HIV-1 Env pseudoviruses; remark: listed apart in the source
[4] = target: HIV-1 Env of pseudovirus ZM233.6 (clade C) (HIV-1)
[5] = target: HIV-1 Env of the BG505 strain (on pseudovirus) (HIV-1); remark: listed apart in the source
[6] = target: HIV-1 Env of the BG505 strain (on pseudovirus) (HIV-1); remark: listed apart in the source
[7] = target: HIV-1 Env of pseudovirus ZM233.6 (clade C) (HIV-1); remark: listed apart in the source
[8] = target: HIV-1 Env of pseudovirus Q259.17 (clade A) (HIV-1)
[9] = target: HIV-1 Env of pseudovirus 191821.E6.1 (clade D) (HIV-1)
[10] = target: HIV-1 Env of pseudovirus 16936-2.21 (clade C) (HIV-1)
[11] = target: HIV-1 Env of pseudovirus CAP256.206.C9 (clade C) (HIV-1)
[12] = target: HIV-1 Env of pseudovirus 246-F3.C10.2 (clade AC) (HIV-1)
[13] = target: HIV-1 Env of pseudovirus CH038.12 (clade BC) (HIV-1)

Row | Molecule | IC50 [1] [ng/mL] | IC80 [1] [µg/mL] | % of viruses neutralized, IC50 50 µg/mL [2] [%] | Mean IC50 (geometric mean, samples with IC50 < 50 µg/mL) [2] [µg/mL] | Median IC50 (samples with IC50 < 50 µg/mL) [2] [µg/mL] | % of viruses neutralized, IC80 < 1.0 µg/mL [3] [%] | Mean IC80 (geometric mean, samples with IC80 < 50 µg/mL) [3] [µg/mL] | Median IC80 (samples with IC80 < 50 µg/mL) [3] [µg/mL] | further results
1 | PGT145 N(100l)D (antibody) | 3 | 0.01 |  |  |  |  |  |  | 
2 | PG9RSH N(100f)Y (antibody, V domains shown) VH: ERLVESGGGVVQPGSSLRLSCAASGFDFSRQGMHWVRQAPGQGLEWVAFIKYDGSEKYHADSVWGRLSISRDNSKDTLYLQMNSLRVEDTATYFCVREAGGPDYRNGYYYYDFYDGYYNYHYMDVWGKGTTVTVSS VL: QSALTQPASVSGSPGQSITISCQGTSNDVGGYESVSWYQQHPGKAPKVVIYDVSKRPSGVSNRFSGSKSGNTASLTISGLQAEDEGDYYCKSLTSRSHRVFGTGTKLTVLG |  |  | 83 | 0.04 | 0.025 | 62 | 0.106 | 0.086 | fold decrease in IC50 relative to wild type [4]: 63 fold; IC50 [5]: 9 ng/mL; IC80 [5]: 0.023 µg/mL
3 | PG9RSH Y(100k)D (antibody, V domains shown) VH: ERLVESGGGVVQPGSSLRLSCAASGFDFSRQGMHWVRQAPGQGLEWVAFIKYDGSEKYHADSVWGRLSISRDNSKDTLYLQMNSLRVEDTATYFCVREAGGPDYRNGYNYYDFDDGYYNYHYMDVWGKGTTVTVSS VL: QSALTQPASVSGSPGQSITISCQGTSNDVGGYESVSWYQQHPGKAPKVVIYDVSKRPSGVSNRFSGSKSGNTASLTISGLQAEDEGDYYCKSLTSRSHRVFGTGTKLTVLG |  |  | 87 | 0.035 | 0.017 | 63 | 0.078 | 0.058 | IC50 [6]: 4 ng/mL; IC80 [6]: 0.01 µg/mL; IC50 (variant) [7]: 1 ng/mL; fold-change in IC50 between wild type and variant [7]: 110 fold
4 | PGT145 (antibody, V domains shown) VH: QVQLVQSGAEVKKPGSSVKVSCKASGNSFSNHDVHWVRQATGQGLEWMGWMSHEGDKTGLAQKFQGRVTITRDSGASTVYMELRGLTADDTAIYYCLTGSKHRLRDYFLYNEYGPNYEEWGDYLATLDVWGHGTAVTVSS VL: EVVITQSPLFLPVTPGEAASLSCKCSHSLQHSTGANYLAWYLQRPGQTPRLLIHLATHRASGVPDRFSGSGSGTDFTLKISRVESDDVGTYYCMQGLHSPWTFGQGTKVEIKR | 10 | 0.253 | 75 | 0.086 | 0.053 | 39 | 0.343 | 0.276 | IC50 (WT) [8]: 45 µg/mL; IC50 (WT) [9]: 3.35 µg/mL; IC50 (WT) [10]: 5.14 µg/mL; IC50 (WT) [11]: 3.95 µg/mL; IC50 (WT) [12]: 17.4 µg/mL; IC50 (WT) [13]: 46.5 µg/mL
